Reference: patent US20050214312A1

Molecular target: recombinant human or murine heat shock protein 70 (hsp70) (human or murine)

## RGYVYQGL (modifications not checked) [RGYVYQGL (VSV nucleoprotein amino acids 52-59)]
  Kd: 82 µM
